# Literature values as cited in paper PMC5764468.
# pKd: −log10 of the molar value.
# Molecular target: calmodulin (Homo sapiens) (UniProt P0DP23)
substance,measurement,value
CyaA AC domain AC (from UniProt P0DKX7),pKd,> 10.00
